Source: article PMC5015263, “Casitas B-lineage lymphoma linker helix mutations found in myeloproliferative neoplasms affect conformation” (BMC Biology, 2016)
Where a chain is given by its changes, count along the chain named. Names may count otherwise.

B1: His-GST-N-Cbl wild-type (residues 47-435) (domain or fragment, UniProt P22681 47-435, looked up)
chain: PPGTVDKKMVEKCWKLMDKVVRLCQNPKLALKNSPPYILDLLPDTYQHLRTILSRYEGKMETLGENEYFRVFMENLMKKTKQTISLFKEGKERMYEENSQPRRNLTKLSLIFSHMLAELKGIFPSGLFQGDTFRITKADAAEFWRKAFGEKTIVPWKSFRQALHEVHPISSGLEAMALKSTIDLTCNDYISVFEFDIFTRLFQPWSSLLRNWNSLAVTHPGYMAFLTYDEVKARLQKFIHKPGSYIFRLSCTRLGQWAIGYVTADGNILQTIPHNKPLFQALIDGFREGFYLFPDGRNQNPDLTGLCEPTPQDHIKVTQEQYELYCEMGSTFQLCKICAENDKDVKIEPCGHLMCTSCLTSWQESEGQGCPFCRCEIKGTEPIVVDPFD
notes: Cbl (c-Cbl), N-terminal fragment with TKBD, linker helix region and RING domain (N-Cbl), residues 47-435; Modified pGEX4T1 with N-terminal His-GST tag followed by a thrombin or TEV cleavage site; tag not cleaved for SPR; also called WT; wild-type N-Cbl; not shown: His, N-terminal, kept; GST, N-terminal, kept
B2: His-GST-N-Cbl Y368F (residues 47-435) (domain or fragment, UniProt P22681 47-435, looked up)
chain: B1 chain with Y322F
notes: Cbl (c-Cbl), N-terminal fragment with TKBD, linker helix region and RING domain (N-Cbl), residues 47-435; Tag not cleaved for SPR; not shown: His, N-terminal, kept; GST, N-terminal, kept
B3: His-GST-pTyr371-N-Cbl Y368F (residues 47-435) (domain or fragment, UniProt P22681 47-435, looked up)
chain: B1 chain with Y322F
modifications: phosphotyrosine at 371
notes: Cbl (c-Cbl), N-terminal fragment with TKBD, linker helix region and RING domain (N-Cbl), residues 47-435; Y368F is required for homogeneous phosphorylation at Tyr371; also called pY371 Y368F; source: generated as described previously [6]; not shown: His, N-terminal, kept; GST, N-terminal, kept
B4: His-GST-N-Cbl M222E (residues 47-435) (domain or fragment, UniProt P22681 47-435, looked up)
chain: B1 chain with M176E
notes: as for B2
B5: His-GST-N-Cbl Y371H (residues 47-435) (domain or fragment, UniProt P22681 47-435, looked up)
chain: B1 chain with Y325H
notes: Cbl (c-Cbl), N-terminal fragment with TKBD, linker helix region and RING domain (N-Cbl), residues 47-435; mutation identified in MDS/MPN clinical samples; Tag not cleaved for SPR; not shown: His, N-terminal, kept; GST, N-terminal, kept
B6: His-GST-N-Cbl Y371A (residues 47-435) (domain or fragment, UniProt P22681 47-435, looked up)
chain: B1 chain with Y325A
notes: as for B2
B7: His-GST-N-Cbl Y371E (residues 47-435) (domain or fragment, UniProt P22681 47-435, looked up)
chain: B1 chain with Y325E
notes: as for B2
B8: His-GST-N-Cbl Y371D (residues 47-435) (domain or fragment, UniProt P22681 47-435, looked up)
chain: B1 chain with Y325D
notes: as for B5
B9: His-GST-N-Cbl Y371C (residues 47-435) (domain or fragment, UniProt P22681 47-435, looked up)
chain: B1 chain with Y325C
notes: as for B5
B10: His-GST-N-Cbl Y371S (residues 47-435) (domain or fragment, UniProt P22681 47-435, looked up)
chain: B1 chain with Y325S
notes: as for B5
B11: His-GST-N-Cbl Y371F (residues 47-435) (domain or fragment, UniProt P22681 47-435, looked up)
chain: B1 chain with Y325F
notes: as for B2

Target: T1, UbcH5B S22R C85K–Ub (UniProt P62837 1-147; P0CG47 1-76, S22R | C85K, conjugated to Ub via an isopeptide bond (non-hydrolyzable amide linkage) | conjugated to UbcH5B via an isopeptide bond)
T1 construct: E2 ubiquitin-conjugating enzyme UbcH5B; ubiquitin (Ub); also called UbcH5B–Ub; E2–Ub; source: expressed, generated and purified as described previously [7]
Assay: SPR; GST-Cbl variants coupled to CM-5 chips; UbcH5B–Ub as analyte at 0–120 μM; Biacore T200
Conditions: both partners purified

Binder	Kd [µM]
B1	84
B2	49
B3	2.6
B4	14
B5	39
B6	30
B7	9
B8	10
B9	36
B10	16
B11	84
